Biological target: actin (pyrene-labeled filaments)
Experiment: pyrene-actin fluorescence quenching titration
Settings: sites S3

human cofilin-1 (from UniProt P23528) cofilin S3D,G4L, sequence (P23528 whole entry, looked up, stated change not applied): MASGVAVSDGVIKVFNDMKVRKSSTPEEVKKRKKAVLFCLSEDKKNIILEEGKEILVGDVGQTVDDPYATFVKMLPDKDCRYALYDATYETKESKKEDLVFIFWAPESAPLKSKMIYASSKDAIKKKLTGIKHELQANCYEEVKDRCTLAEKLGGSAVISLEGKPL
human cofilin-1 (from UniProt P23528) cofilin S3D,G4F, sequence (P23528 whole entry, looked up, stated change not applied): as above
human cofilin-1 (from UniProt P23528) cofilin S3D, sequence (P23528 whole entry, looked up, stated change not applied): as above

human cofilin-1 (from UniProt P23528) cofilin S3D
other: K0.5 (reference: cofilin WT): weaker; reference 0.61

human cofilin-1 (from UniProt P23528) cofilin S3D,G4F
other: K0.5 (reference: cofilin G4F): same; reference 1.0

human cofilin-1 (from UniProt P23528) cofilin S3D,G4L
other: K0.5 (reference: cofilin G4L): same; reference 0.59
